Values of other authors as cited in PMC12406711.
pKd: −log10 of the molar value.

Molecular target: PCDH10 ECD (Homo sapiens) (UniProt Q9P2E7)

In the case of PCDH10 ECD (from UniProt Q9P2E7), the pKd is listed as 5.44.
